Source: the DeepSol protein solubility set

Assay: soluble on expression in E. coli; label from the status in PepcDB or PDB records

| Sequence | soluble on expression in E. coli |
| --- | --- |
| MKTLNRRDFPGAQYPERIIQFGEGNFLRAFVDWQIDLLNEHTDLNSGVVVVRPIETSFPPSLSTQDGLYTTIIRGLNEKGEAVSDARLIRSVNREISVYSEYDEFLKLAHNPEMRFVFSNTTEAGISYHAGDKFDDAPAVSYPAKLTRLLFERFSHFNGALDKGWIIIPCELIDYNGDALRELVLRYAQEWALPEAFIQWLDQANSFCSTLVDRIVTGYPRDEVAKLEEELGYHDGFLDTAEHFYLFVIQGPKSLATELRLDKYPLNVLIVDDIKPYKERKVAILNGAHTALVPVAFQAGLDTVGEAMNDAEICAFVEKAIYEEIIPVLDLPRDELESFASAVTGRFRNPYIKHQLLSIALNGMTKFRTRILPQLLAGQKANGTLPARLTFALAALIAFYRGERNGETYPVQDDAHWLERYQQLWSQHRDRVIGTQELVAIVLAEKDHWEQDLTQVPGLVEQVANDLDAILEKGMREAVRPLC | not soluble |
| MGSDKIHHHHHHMKQIPLAERMRPKTLADYVGQQHLIGSGAVLRQMIEQGQTPSMILWGPPGVGKTTLAEIIAHEVDAPFYTLSAVSSGVKEVREVIADIESNRGNLFDKGGRAILFIDEIHRFSKSQQDSLLAAVERGIVTLIGATTENPSFEVIRPLLSRCQVYVLKPQSDEDLLLLAHRAIDRDELLAAKHPVLEETEALLLYAGGDARKLLNILDLLATSEVEDRLVITNEKIRQRLQENPAAFDKGGELHYDIASAFIKSIRGSDPDAAIYWLARLIDGGEEPSFIARRLIISASEDIGLANPNAMLIAMACAEALDRIGWPEGRIPLAEATIYLATSEKSNSAYLAIDSALEYVRQSGNLPVPLHLRNAPTRLMADLDYGKGYKYSHDFPEHFVSQQYLPDKAANTSFWTPQMHTVHEAKLGERMKRWWKREKSQKDTAE | not soluble |
| MNVSVLNFGNTPVSFRQDGFLNATAIASHFGKLPKDYLKSEQTQQYISALAENLSVRRKILTEANQIVIVKRGGSEQGTWLHPKLAIHFARWLNPKFAVWCDEQIEILLNGKISDGIKTVTPKPTRALPDGLTGEQIEAVKKLHNALTKSAPKEAQARIAITLWSAVKSKFGCSYKEVPAEQFPEVLSVMGRVAVENGVLYGEVLDREPLPAPQPALPISGNALYDLAVAVRYGAWAIQMGRDVSLPLKQLGCKQAVTMWTVWAETRSRLKAAANALEALNAHADAEHAAKIRPMLPEIRNLSSV | not soluble |
| MKPPSSIQTSEFDSSDEEPIEDEQTPIHISWLSLSRVNCSQFLGLCALPGCKFKDVRRNVQKDTEELKSCGIQDIFVFCTRGELSKYRVPNLLDLYQQCGIITHHHPIADGGTPDIASCCEIMEELTTCLKNYRKTLIHSYGGLGRSCLVAACLLLYLSDTISPEQAIDSLRDLRGSGAIQTIKQYNYLHEFRDKLAAHLSSRDSQSRSVSR | soluble |
| MWINKVIKKRFETDIVQHVHIAKGTAMFQGVRLAVRCFVVDGVLIDTGAKSMENEFTSFFQQQDIDQVVITHFHEDHTGCAAFLQRSMGLPIYMNEPMIEYCRQKADYPLYRKIFWGKRDPFAAKPIGATFSSRNATWDVIPTPGHAIDHVVFLNRETGQLFSGDLYCQEKTKVILREEDIPTIIASLQHVLTYDFGDVFCAHAGYLPNGREALQRKLDYLLELQGTIIDLYEKGTPPKQIQALLFPKKYPIIFFSGGEWDSLHIVRSVIRDYEAKQASLEHHHHHH | soluble |
| MNDHLKRGNLLWEGSRMFLPEHKQSLLERKRLKQKLQKPILDPDKLEEMNQTLCAAMEFAQDITVSCFQDGEIVCCTGKICRYEEFEKAVWIKGDEDQLYKLKLDQVLDI | not soluble |
| MSLSKSLQKPTILNVETVARSRLFTVESVDLEFSNGVRRVYERMRPTNREAVMIVPIVDDHLILIREYAVGTESYELGFSKGLIDPGESVYEAANRELKEEVGFGANDLTFLKKLSMAPSYFSSKMNIVVAQDLYPESLEGDEPEPLPQVRWPLAHMMDLLEDPDFNEARNVSALFLVREWLKGQGRVEGGSHHHHHH | soluble |
| MDEFEMIKRNTSEIISEEELREVLKKDEKSAIIGFEPSGKIHLGHYLQIKKMIDLQNAGFDIIILLADLFAYLNQKGELDEIRKIGDYNKKVFEAMGLKAKYVYGSSFMLDKDYTLNVYRLALKTTLKRARRSMELIAREDENPKVAEVIYPIMQVNPLHYEGVDVAVGGMEQRKIHMLARELLPKKVVCIHNPVLTGLDGEGKMSSSKGNFIAVDDSPEEIRAKIKKAYCPAGVVEGNPIMEIAKYFLEYPLTIKRPEKFGGDLTVNSYEELESLFKNKELHPMDLKNAVAEELIKILEPIRKRLLEHHHHHH | soluble |
| SLQLHFTNDALPDNVSTDFQNLNKFSEQQFVSLTDILYQFLLEPKESERFLHQLTEFAGENGMSAGPLRALMKSILLLPHGALKRNLTAEQIKLDLLSLGLNEDKASHFSDQWRVHYPVLARLAVGQTLMVNQLVDMEWKFGVTVGTSELQKTGNIFLQLKLVIRKGNMTENVYMELTLPQFYSFLHEMERAKASMDCFS | soluble |
| MAKIPVLEIFGPTIQGEGRVIGRKTMFVRTAGCDYRCSWCDSAFTWDGSAKEDIKLMTAEEIYDALLEIGGHRFNHVTISGGNPALIKGIQELVDLFEDKHIYTALETQGSRFQSWMTQIDDLTISPKPPSSGMKTNLEILDSVINQCTFHSLNLKVVIFDDADYDFAKLIHHRYPNIPFYLQVGNPYLDDNVDQHTDKLLERYEQLVDRVMQSSDMNHVYVLPQLHTLLWSNKKGV | not soluble |
| MGSDKIHHHHHHSLSGRAQTEKPSALVKVGDYRASTDFLNLSAYYQTIRPVTVKVAYVSTYKTQHTIMQKLTLPAGLTVAGNLTTTKHGSYLVPSLQLYLARLSYPALQNSAKANYTLDPGTSAYSPQATISDTTKLRAFKRVAAPDYMPGYSHGDLYIGGAKAALSPVEPTTKSIRITPDGYVEVLKYDTKANAGLGFYQKPVSLAKIVKTRFHDPNRTLYLNHPLASVKTKAITQNGQTRYRLTLKNLHTPQHIAGDPETGTAGTFDSLYSIGGTTYYTFIGYDGVSN | not soluble |
| MSLAKYFDPHIHMVSRTTDDYQNMAAAGITGVIEPAFWQGQARTSVGSFIDYFDTLLGWERFRASMFGIHHFCTIGLNPKEANDLSVANEVLEILPRYLVKDGVVAVGEIGYDDITPEEDRFLAAQLELARQFNLPVLVHTPHRDKIGGTKRTLAVIREVGIAENLVIIDHLNELTLPLVLDSDCWRGHSIYPNTKMSEQRMVALLQEYGSEKMVVNSAADWGISDPLKVPKTGQAMLAAGFSEAQVEQVLFHNPVDFFAQSGQLDKQLVSTEGHHHHHH | not soluble |
| YDQSSVLIVGDVMLDRYWGGPTSRISPEAPVPVVKVEKIEERPGGAANVAMNIAALGGDAHLVGLVGEDEPAQALTTTLESLKVHCDFVALPEFPTITKLRVMSRGQQLIRLDFEDSFHDVAAEPIISRMQQALSSVKAVVLSDYAKGALEHVQLMIQEARKVNVPVFIDPKGADFERYRGATLLTPNMLEFETVVGKVKDEDDLVAKGQQIIEEFDFEALLVTRSEHGMTLLRRNMEPLHLPTQAREVFDVTGAGDTVISVLAASVSTGKPLDEACALANAAAGVVVGKLGTSTLSTIELAEAIHG | not soluble |
| MGSDKIHHHHHHMLELTDDLRIGHPVIDADHQRLIEIINEFLEHSNEVNPQILHETLKSLLAYGREHFAREEGIQRQCLYPYQQGHSNEHKSLLDQVREIARAYFVAKTKPLNATSVQDVNELLKAWLIGHVKKFDTSMRDWVAPSLDMDAPRIKLASPDLAALIISPNERSRARLADLLSELGASKVLQAEDSITGLGMAFGDPVPDFIFCDLETEPLDGGAFAGALRGSNKAYITRIPLLLLHDAEDAEAIQNAMAAGASGVYPKSFNPTNLGRLLNQLLLR | not soluble |
| TVSVLLPFVATEFYRRLVEGIEGVLLEQRYDLALFPILSLARLKRYLENTTLAYLTDGLILASYDLTERFEEGRLPTERPVVLVDAQNPRYDSVYLDNRLGGRLAGAYLARFPGPIFAIAVEEEPDRAFRRTVFAERMAGFQEALKEAGRPFSPDRLYITRHSQEGGRLALRHFLEKASPPLNVFAGADQVALGVLEEAVRLGLTPGRDVRVLGFDGHPFAEEAGLSTIAQPVEAMGARAAQLLLERMRGYQGPPREVRFEPVLVERASTGTPPAA | soluble |
| GPGSMGRQKSRNLWNDGEGTKSVCRPQQVTVAKGWRVTPDLLPAKPLAPRRRKYAPIRPNNRDAVAIPLGGQSYNPLDEEHQEALAKAVRQLSKKKLKDEKFVKMMTMGRDKKYTGNLSADKTWEEEVQETEPATAKTPKKKRTKTAPASTGASSSAPSSAPSPVTHNGNKAKHEKVAAAPAAVAKNGKTAKKQKKKTKKATAEEAKRAMTHRRHPKRGVVAKETDELDVLLAAHKATACKREVARQKRRAAKKANLAIKHYGRHYHTPLVLDVTPSDKLVGSLRHLSGGYVHPALERMKSLEERNLVPARMRHTYNKRKVLKPKGEVRVKREEFGVMPMTGF | soluble |
| MKQLTILGSTGSIGNSTLSVVRANPELFKVTALVAGRNVREMAQQCLEFSPRYAAMSDEHSAKSLRLLLAEQGSDTEVYSGETAACELAALDDVDQVMAAIVGIAGLPSTLAAIRAGKQVLLANKESLITCGKLFMDEVKRSRAQLLPIDSEHNAIFQSLPERIQRQLGYSSLNENGVSRIILTGSGGPFRETPLSQFSDVTPDQACAHPNWSMGRKISVDSATMMNKGLEYIEARWLFNASAEQIEVVLHPQSVIHSMVRYHDGSILAQMGTPDMRTPIAHAMAYPMRVSSGVAPLDFCKVGALTFTTPDYQRYPCLKLAIDACNAGQAATTALNAANEISVMAFLDSKIRFTDIEVINRTVVEGLLLSEPTSVEEVLVIDRKARDVAAQVIAKLNN | not soluble |
| MSLARSMTTGRSGTIGVVVGDIENPFFSLAVRGITDVARQAGFTVILINSGEDAAAEKAAIRTLLAKRVDGLIVSPAKENDVEHLHEVIRSGLPLALLDRGSDTLEVDTVLADDRYTAENVTSRLIALGHRRIAYLTACDTPDHRFRTPQDISTGSVRRRIEGYLAVCREAGFIGMEDWVKVGAVTPERTHRIVIETLQSGHRPTAIIASDSIIGLEVFKAHRELGLNIPGDLSLVSFHDADWTSVTTPPVTVVRQPVYELGATAARLLVERLNGEDRAARKVVLKNEVVERASTRAIEGHHHHHH | soluble |
| SEAIQTLLDRKLPDEELEQINQACLSVKGVLGVHQLRTRMSGPTRFIQLHLELDDNLRLIEAHYIADKVEDNLLALFPEADVLIHQDPLSVVFGPEKEQKAQDW | not soluble |
| MGSDKIHHHHHHACSGQLDTIQEYLDAGETIYAAKMDSVDIRPGYNRVEVTGLLKYGMDTERCVIHWTPDNDSLVVPVKRIDPVDTFRVFIENLPEGTYQFEIVTYNKSGYRSISTSKGSKTYGDRYISSLRVRSLLSTEVEGENLLLNFSSEMAEALATKVFYLNSAGEKQEQEVARGDNQIKITDWKPRGAYEVKTYYIPEVNAVDTFSVSSTGVFPEKIVEMDKSTFREIILDNDIRLNAWGGALWKAWDNAYENTNYAHSDNTNPIVFPAWFTFDLGEKALLKRFDLFSVVRDDLNYNGGNMKSWEIWGREDEPANSSWDGWTKLITCNSFKPSGKPVGENTDEDNSYIAKGEKFDFPSGIPEVRYIRIKVLDSWSGQGYVQFSEFTFYKSE | not soluble |
| AQKPWEKDAWEIPRESLKLEKKLGAGQFGEVWMATYNKHTKVAVKTMKPGSMSVEAFLAEANVMKTLQHDKLVKLHAVVTKEPIYIITEFMAKGSLLDFLKSDEGSKQPLPKLIDFSAQIAEGMAFIEQRNYIHRDLRAANILVSASLVCKIADFGLARVIEDNEYTAREGAKFPIKWTAPEAINFGSFTIKSDVWSFGILLMEIVTYGRIPYPGMSNPEVIRALERGYRMPRPENCPEELYNIMMRCWKNRPEERPTFEYIQSVLDDFE | soluble |
